Measured values published in patent US20260042834A1, “ANTI-CORTICOTROPIN-RELEASING HORMONE ANTIBODIES AND POLYCYSTIC OVARY SYNDROME” (HBM ALPHA THERAPEUTICS, INC., priority 2022, published 2026).

Legend:
[1] = biological target: biotinylated CRH (human and mouse); experiment: competitive ELISA, coated 1st mAb; competitor PR006152
[2] = biological target: biotinylated CRH (human and mouse); experiment: competitive ELISA, coated 1st mAb; competitor PR006148
[3] = biological target: biotinylated CRH (human and mouse); experiment: competitive ELISA, coated 1st mAb; competitor hIgG1
[4] = biological target: biotinylated CRH (human and mouse); experiment: competitive ELISA, coated 1st mAb; competitor PR004290
[5] = biological target: biotinylated CRH (human and mouse); experiment: competitive ELISA, coated 1st mAb; competitor PR005660
[6] = biological target: biotinylated CRH (human and mouse); experiment: Octet in-tandem, row = 1st mAb; competitor (2nd mAb) PR006669
[7] = biological target: biotinylated CRH (human and mouse); experiment: Octet in-tandem, row = 1st mAb; competitor (2nd mAb) PR302309-8
[8] = biological target: biotinylated CRH (human and mouse); experiment: competitive ELISA, coated 1st mAb; competitor PR302069
[9] = biological target: biotinylated CRH (human and mouse); experiment: competitive ELISA, coated 1st mAb; competitor PR301777
[10] = biological target: biotinylated CRH (human and mouse); experiment: competitive ELISA, coated 1st mAb; competitor PR302064
[11] = biological target: biotinylated CRH (human and mouse); experiment: competitive ELISA, coated 1st mAb; competitor PR302050
[12] = biological target: biotinylated CRH (human and mouse); experiment: competitive ELISA, coated 1st mAb; competitor PR302055
[13] = biological target: biotinylated CRH (human and mouse); experiment: Octet in-tandem, row = 1st mAb; competitor (2nd mAb) PR302341-34
[14] = biological target: biotinylated CRH (human and mouse); experiment: Octet in-tandem, row = 1st mAb; competitor (2nd mAb) PR302334
[15] = biological target: biotinylated CRH (human and mouse); experiment: Octet in-tandem, row = 1st mAb; competitor (2nd mAb) PR303394
[16] = biological target: biotinylated CRH (human and mouse); experiment: Octet in-tandem, row = 1st mAb; competitor (2nd mAb) PR005660
[17] = biological target: biotinylated CRH (human and mouse); experiment: Octet in-tandem, row = 1st mAb; competitor (2nd mAb) PR301777

Sequence of biotinylated CRH (human and mouse) (peptide, as listed by the source): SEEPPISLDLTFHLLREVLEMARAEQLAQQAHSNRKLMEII

- % Inhibition [1]: 0%
- % Inhibition [2]: 0%
- % Inhibition [3]: 0%
- % Inhibition [4]: 0%
- % Inhibition [5]: 0%
- % Inhibition [6]: 9%
- % Inhibition [7]: 15%
- % Inhibition [8]: 0%
- % Inhibition [9]: 0%
- % Inhibition [10]: 0%
- % Inhibition [11]: 0%
- % Inhibition [12]: 0%
- % Inhibition [13]: 12%
- % Inhibition [14]: 8%
- % Inhibition [15]: 10%
- % Inhibition [16]: 12%
- % Inhibition [17]: 9%
Substance: hIgG1 (antibody)
